B1: TGFA, P01135 (peptide)
chain: TACCHSETVV
B2: CLDN14, O95500 (peptide)
chain: HSGYRLNDYV
B3: GRIN2A, Q12879 (peptide)
chain: KKMPSIESDV

Target: GRIP2_4, Q9C0E4
Experiment: holdup assay
Set-up: key: below the threshold = too weak to quantify, mostly under pKd 3.1 to 4
Details: plain residues with an end cap or a label only (N-terminal biotin on a linker: ado-ado)

Chain of GRIP2_4, Q9C0E4 (Q9C0E4 446-548): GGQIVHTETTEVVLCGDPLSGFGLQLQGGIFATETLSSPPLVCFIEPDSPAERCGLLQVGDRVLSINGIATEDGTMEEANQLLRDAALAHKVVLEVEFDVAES

Binder | pKd
B1 | below the threshold
B2 | below the threshold
B3 | below the threshold

Target: T1, GRIP1_7, Q9Y3R0
T1 sequence (Q9Y3R0 999-1096, limits assumed, looked up): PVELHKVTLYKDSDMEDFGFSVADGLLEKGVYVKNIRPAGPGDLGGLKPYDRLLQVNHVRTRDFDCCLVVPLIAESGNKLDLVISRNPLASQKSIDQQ
Experiment: holdup assay
Set-up: key: below the threshold = too weak to quantify, mostly under pKd 3.1 to 4
Details: plain residues with an end cap or a label only (N-terminal biotin on a linker: ado-ado)

Binder | pKd
B1 | below the threshold
B2 | below the threshold
B3 | below the threshold

Target: T2, MPP6, Q9NZW5
T2 sequence (Q9NZW5 125-219, limits assumed, looked up): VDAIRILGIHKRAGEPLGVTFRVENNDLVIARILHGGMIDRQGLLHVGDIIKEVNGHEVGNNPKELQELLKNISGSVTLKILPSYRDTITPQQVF
Experiment: holdup assay
Set-up: key: below the threshold = too weak to quantify, mostly under pKd 3.1 to 4
Details: plain residues with an end cap or a label only (N-terminal biotin on a linker: ado-ado)

Binder | pKd
B1 | below the threshold
B2 | 3.9
B3 | below the threshold

Target: T3, PDZD2_2, O15018
T3 sequence (O15018 329-429, limits assumed, looked up): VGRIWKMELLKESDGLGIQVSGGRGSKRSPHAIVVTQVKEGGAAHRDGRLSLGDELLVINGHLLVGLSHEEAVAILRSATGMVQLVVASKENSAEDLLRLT
Experiment: holdup assay
Set-up: key: below the threshold = too weak to quantify, mostly under pKd 3.1 to 4
Details: plain residues with an end cap or a label only (N-terminal biotin on a linker: ado-ado)

Binder | pKd
B1 | 4.32
B2 | 4.79
B3 | 4.91

Target: DLG4_1, P78352
Sequence (P78352 62-152): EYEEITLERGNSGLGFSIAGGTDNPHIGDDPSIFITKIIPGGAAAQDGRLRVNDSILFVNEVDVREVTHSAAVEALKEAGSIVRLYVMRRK
Experiment: holdup assay
Set-up: key: below the threshold = too weak to quantify, mostly under pKd 3.1 to 4
Details: plain residues with an end cap or a label only (N-terminal biotin on a linker: ado-ado)

Binder | pKd
B1 | 4.75
B2 | below the threshold
B3 | 4.71

Target: T4, APBA3_1, O96018
T4 sequence (O96018 389-490, limits assumed, looked up): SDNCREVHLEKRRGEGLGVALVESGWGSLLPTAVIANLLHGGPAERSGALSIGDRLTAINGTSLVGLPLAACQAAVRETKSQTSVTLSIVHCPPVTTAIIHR
Experiment: holdup assay
Set-up: key: below the threshold = too weak to quantify, mostly under pKd 3.1 to 4
Details: plain residues with an end cap or a label only (N-terminal biotin on a linker: ado-ado)

Binder | pKd
B1 | below the threshold
B2 | below the threshold
B3 | below the threshold

Target: TJP1_3, Q07157
Sequence (Q07157 416-512): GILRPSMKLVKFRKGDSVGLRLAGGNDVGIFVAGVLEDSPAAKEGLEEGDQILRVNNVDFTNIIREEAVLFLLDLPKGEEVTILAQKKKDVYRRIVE
Experiment: holdup assay
Set-up: key: below the threshold = too weak to quantify, mostly under pKd 3.1 to 4
Details: plain residues with an end cap or a label only (N-terminal biotin on a linker: ado-ado)

Binder | pKd
B1 | below the threshold
B2 | below the threshold
B3 | below the threshold

Target: T5, LNX2_3, Q8N448
T5 sequence (Q8N448 463-564, limits assumed, looked up): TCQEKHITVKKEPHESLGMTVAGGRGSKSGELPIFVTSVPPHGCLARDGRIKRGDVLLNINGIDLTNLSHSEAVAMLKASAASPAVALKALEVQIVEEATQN
Experiment: holdup assay
Set-up: key: below the threshold = too weak to quantify, mostly under pKd 3.1 to 4
Details: plain residues with an end cap or a label only (N-terminal biotin on a linker: ado-ado)

Binder | pKd
B1 | below the threshold
B2 | below the threshold
B3 | below the threshold

Target: GRIP2_5, Q9C0E4
Sequence (Q9C0E4 544-642): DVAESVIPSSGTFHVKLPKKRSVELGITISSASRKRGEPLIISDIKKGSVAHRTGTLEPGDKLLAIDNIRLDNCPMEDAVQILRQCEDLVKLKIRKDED
Experiment: holdup assay
Set-up: key: below the threshold = too weak to quantify, mostly under pKd 3.1 to 4
Details: plain residues with an end cap or a label only (N-terminal biotin on a linker: ado-ado)

Binder | pKd
B1 | below the threshold
B2 | below the threshold
B3 | below the threshold

Target: Inadl_3, Q8NI35
Sequence (Q8NI35 359-469): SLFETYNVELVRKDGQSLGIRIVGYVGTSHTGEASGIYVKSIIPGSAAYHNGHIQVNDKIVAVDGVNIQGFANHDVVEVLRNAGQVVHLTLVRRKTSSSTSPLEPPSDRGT
Experiment: holdup assay
Set-up: key: below the threshold = too weak to quantify, mostly under pKd 3.1 to 4
Details: plain residues with an end cap or a label only (N-terminal biotin on a linker: ado-ado)

Binder | pKd
B1 | 4.81
B2 | below the threshold
B3 | below the threshold

Target: DLG5_1, Q8TDM6
Sequence (Q8TDM6 617-713): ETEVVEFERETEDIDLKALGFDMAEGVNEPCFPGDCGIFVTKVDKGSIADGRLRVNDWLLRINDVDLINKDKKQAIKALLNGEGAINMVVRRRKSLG
Experiment: holdup assay
Set-up: key: below the threshold = too weak to quantify, mostly under pKd 3.1 to 4
Details: plain residues with an end cap or a label only (N-terminal biotin on a linker: ado-ado)

Binder | pKd
B1 | below the threshold
B2 | below the threshold
B3 | below the threshold

Target: T6, RAPGEF6, Q8TEU7
T6 sequence (Q8TEU7 525-625, limits assumed, looked up): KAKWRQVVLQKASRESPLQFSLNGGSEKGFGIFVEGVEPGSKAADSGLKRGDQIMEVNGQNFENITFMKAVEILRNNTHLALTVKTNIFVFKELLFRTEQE
Experiment: holdup assay
Set-up: key: below the threshold = too weak to quantify, mostly under pKd 3.1 to 4
Details: plain residues with an end cap or a label only (N-terminal biotin on a linker: ado-ado)

Binder | pKd
B1 | below the threshold
B2 | below the threshold
B3 | below the threshold

Target: T7, RADIL, Q96JH8
T7 sequence (Q96JH8 971-1071, limits assumed, looked up): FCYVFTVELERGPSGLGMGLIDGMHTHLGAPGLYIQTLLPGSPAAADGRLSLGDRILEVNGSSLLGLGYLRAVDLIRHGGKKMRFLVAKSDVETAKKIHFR
Experiment: holdup assay
Set-up: key: below the threshold = too weak to quantify, mostly under pKd 3.1 to 4
Details: plain residues with an end cap or a label only (N-terminal biotin on a linker: ado-ado)

Binder | pKd
B1 | 4.35
B2 | 4.6
B3 | below the threshold

Target: T8, SNTG1, Q9NSN8
T8 sequence (Q9NSN8 52-150, limits assumed, looked up): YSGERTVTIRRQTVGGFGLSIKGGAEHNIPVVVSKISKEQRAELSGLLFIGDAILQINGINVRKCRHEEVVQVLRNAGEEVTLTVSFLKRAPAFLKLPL
Experiment: holdup assay
Set-up: key: below the threshold = too weak to quantify, mostly under pKd 3.1 to 4
Details: plain residues with an end cap or a label only (N-terminal biotin on a linker: ado-ado)

Binder | pKd
B1 | 4.43
B2 | below the threshold
B3 | 4.89

Target: Inadl_5, Q8NI35
Sequence (Q8NI35 673-780): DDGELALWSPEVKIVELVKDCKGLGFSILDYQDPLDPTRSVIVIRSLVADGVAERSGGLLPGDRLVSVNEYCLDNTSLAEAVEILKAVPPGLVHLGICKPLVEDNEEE
Experiment: holdup assay
Set-up: key: below the threshold = too weak to quantify, mostly under pKd 3.1 to 4
Details: plain residues with an end cap or a label only (N-terminal biotin on a linker: ado-ado)

Binder | pKd
B1 | 3.7
B2 | 3.48
B3 | below the threshold

Target: PDLIM1, O00151
Sequence (O00151 1-87): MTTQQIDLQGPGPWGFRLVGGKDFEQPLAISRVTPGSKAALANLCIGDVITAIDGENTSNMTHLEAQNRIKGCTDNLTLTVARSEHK
Experiment: holdup assay
Set-up: key: below the threshold = too weak to quantify, mostly under pKd 3.1 to 4
Details: plain residues with an end cap or a label only (N-terminal biotin on a linker: ado-ado)

Binder | pKd
B1 | below the threshold
B2 | below the threshold
B3 | 3.93

Target: T9, APBA2_1, Q99767
T9 sequence (Q99767 563-664, limits assumed, looked up): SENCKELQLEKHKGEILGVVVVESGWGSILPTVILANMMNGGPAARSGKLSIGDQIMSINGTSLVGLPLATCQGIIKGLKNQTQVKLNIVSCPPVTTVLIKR
Experiment: holdup assay
Set-up: key: below the threshold = too weak to quantify, mostly under pKd 3.1 to 4
Details: plain residues with an end cap or a label only (N-terminal biotin on a linker: ado-ado)

Binder | pKd
B1 | below the threshold
B2 | below the threshold
B3 | below the threshold

Target: LIMK2, P53671
Sequence (P53671 143-248): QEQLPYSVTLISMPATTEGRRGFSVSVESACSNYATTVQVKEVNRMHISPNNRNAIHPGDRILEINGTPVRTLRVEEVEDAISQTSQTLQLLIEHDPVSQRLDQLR
Experiment: holdup assay
Set-up: key: below the threshold = too weak to quantify, mostly under pKd 3.1 to 4
Details: plain residues with an end cap or a label only (N-terminal biotin on a linker: ado-ado)

Binder | pKd
B1 | below the threshold
B2 | below the threshold
B3 | below the threshold

Target: T10, SNTB1, Q13884
T10 sequence (Q13884 107-205, limits assumed, looked up): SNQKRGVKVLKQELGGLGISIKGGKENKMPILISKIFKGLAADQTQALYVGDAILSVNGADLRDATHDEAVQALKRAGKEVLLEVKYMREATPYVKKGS
Experiment: holdup assay
Set-up: key: below the threshold = too weak to quantify, mostly under pKd 3.1 to 4
Details: plain residues with an end cap or a label only (N-terminal biotin on a linker: ado-ado)

Binder | pKd
B1 | 4.95
B2 | 3.54
B3 | 4.69

Target: Inadl_2, Q8NI35
Sequence (Q8NI35 238-335): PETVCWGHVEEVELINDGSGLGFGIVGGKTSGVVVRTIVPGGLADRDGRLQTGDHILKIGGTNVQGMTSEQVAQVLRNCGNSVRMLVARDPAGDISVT
Experiment: holdup assay
Set-up: key: below the threshold = too weak to quantify, mostly under pKd 3.1 to 4
Details: plain residues with an end cap or a label only (N-terminal biotin on a linker: ado-ado)

Binder | pKd
B1 | below the threshold
B2 | below the threshold
B3 | below the threshold

Target: FRMPD2_2, Q68DX3
Sequence (Q68DX3 944-1038): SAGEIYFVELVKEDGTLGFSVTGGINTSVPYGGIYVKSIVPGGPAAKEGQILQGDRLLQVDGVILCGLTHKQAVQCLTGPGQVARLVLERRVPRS
Experiment: holdup assay
Set-up: key: below the threshold = too weak to quantify, mostly under pKd 3.1 to 4
Details: plain residues with an end cap or a label only (N-terminal biotin on a linker: ado-ado)

Binder | pKd
B1 | 4.1
B2 | below the threshold
B3 | 3.78

Target: GRIP2_6, Q9C0E4
Sequence (Q9C0E4 648-740): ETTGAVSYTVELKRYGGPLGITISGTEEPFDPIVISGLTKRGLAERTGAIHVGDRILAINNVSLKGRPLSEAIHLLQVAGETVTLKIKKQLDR
Experiment: holdup assay
Set-up: key: below the threshold = too weak to quantify, mostly under pKd 3.1 to 4
Details: plain residues with an end cap or a label only (N-terminal biotin on a linker: ado-ado)

Binder | pKd
B1 | below the threshold
B2 | below the threshold
B3 | below the threshold

Target: T11, HTRA4, P83105
T11 sequence (P83105 378-476, limits assumed, looked up): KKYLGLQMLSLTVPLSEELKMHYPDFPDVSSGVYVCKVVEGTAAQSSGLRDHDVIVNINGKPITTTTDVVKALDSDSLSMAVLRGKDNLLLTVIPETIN
Experiment: holdup assay
Set-up: key: below the threshold = too weak to quantify, mostly under pKd 3.1 to 4
Details: plain residues with an end cap or a label only (N-terminal biotin on a linker: ado-ado)

Binder | pKd
B1 | 3.59
B2 | 3.95
B3 | below the threshold

Target: DLG1_1, Q12959
Experiment: holdup assay
Set-up: key: below the threshold = too weak to quantify, mostly under pKd 3.1 to 4
Details: plain residues with an end cap or a label only (N-terminal biotin on a linker: ado-ado)

Binder | pKd
B1 | 4.56
B2 | below the threshold
B3 | 4.75

Target: T12, TIAM2, Q8IVF5
T12 sequence (Q8IVF5 885-986, limits assumed, looked up): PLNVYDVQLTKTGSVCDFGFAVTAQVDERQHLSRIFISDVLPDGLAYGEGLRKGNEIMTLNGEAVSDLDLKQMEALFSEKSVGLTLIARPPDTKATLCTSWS
Experiment: holdup assay
Set-up: key: below the threshold = too weak to quantify, mostly under pKd 3.1 to 4
Details: plain residues with an end cap or a label only (N-terminal biotin on a linker: ado-ado)

Binder | pKd
B1 | below the threshold
B2 | below the threshold
B3 | 3.96

— article PMC9482650, “Quantitative fragmentomics allow affinity mapping of interactomes” (Nature Communications, 2022)
